Earlier results on one substance are cited in paper PMC2962622.

The target in the data set is NIFK 44-residue phosphopeptide (Homo sapiens) (UniProt Q9BYG3).
Chain of UniProt Q9BYG3 (Q9BYG3 2-293): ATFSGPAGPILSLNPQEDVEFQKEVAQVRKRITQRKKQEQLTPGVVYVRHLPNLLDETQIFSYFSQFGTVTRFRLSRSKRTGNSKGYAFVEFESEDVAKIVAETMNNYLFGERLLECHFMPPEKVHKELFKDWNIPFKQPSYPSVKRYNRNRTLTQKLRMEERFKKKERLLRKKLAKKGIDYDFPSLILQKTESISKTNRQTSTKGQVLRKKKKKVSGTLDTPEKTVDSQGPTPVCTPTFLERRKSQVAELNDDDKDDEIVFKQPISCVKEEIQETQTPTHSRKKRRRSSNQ

Take Ki67 FHA (from UniProt P46013): the Kd (in general, the free concentration of one partner at which half of the binding sites on the other are occupied at equilibrium, for simple one-to-one binding) was 77 nM.
